From article PMC7820290 come the findings set out here.

This data set has as its target SARS-CoV-2 nucleocapsid (N), wild type (SARS-CoV-2, UniProt P0DTC9 1-419). In words: co-condensation microscopy; 10 uM N, maximal at 5 uM RNA, reentrant. As to conditions: protein: recombinant; tags: N-terminal His6 cleaved by TEV; Cys inserted before residue 1 in the dye-labelled fraction; chain copies: 2; label: 6-FAM (fluorescein).

With AAGCAGCUAAGAGCGAA (ssRNA) [17-mer RNA], the binding result is reported as “binds”.
